Measurements as given in the supplement of paper PMC7125110.
± gives the standard error. This sample holds only a part of the variants without activity.

B1: glmS ribozyme (parent)
chain: AUAAAAGCGCCAGAACUACAGAAAUGUAGUUGACGAGGAGGAGGUUUAUCGAAUUUUCGGCGGAUGCCUCCAAA

Variants of: B1
Assay: self-cleavage kobs at 2500 uM GlcN6P; higher = faster cleavage; RNA array
Details: with glucosamine-6-phosphate
In short: (§1)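 Glucosamine-6-phosphate, from 40 μM to 10 mM in HEPES/KCl/Mg(OAc)2 buffer, was flowed over sequenced MiSeq chips carrying barcoded ribozyme variants transcribed in situ by E. coli RNA polymerase. A hybridised Cy3 probe tracked the variants at 37 °C as tiles were imaged over ~14 h. kobs, kcat and KM were obtained by fitting normalised per-tile medians to exponential decays and then applying weighted Michaelis–Menten fits across concentrations.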

Variant | self-cleavage kobs at 2500 uM GlcN6P [s⁻¹]
G51C G66A | < 1e-05
G35A C50A U57G | < 1e-05
A15G A39U G40A C61A | < 1e-05
G32A C50G C71U | 0.000168 ± 7.3e-05
A53G C61G G62A | < 1e-05
C10U G51C G59U C67U | < 1e-05
A15G U47G U57A C71G | 5.79e-05 ± 2.3e-05
U45C U46A | 4.42e-05 ± 1.9e-05
C8G A12C A42U C68U | < 1e-05
A6U G32C C34G U55G U56A | < 1e-05
A12G G63A | < 1e-05
A6U U31A G37C U54A | < 1e-05
G41U A42U A52G U56A | 3.73e-05 ± 1.2e-05
G29U U45A U54C U55C G62C | < 1e-05
G41A U47G C70G | 9.9e-05 ± 3.6e-05
C8U U54G A64U U65G | < 1e-05
G13A A52C G60A | < 1e-05
G32C C50U C58G | < 1e-05
A36U G40U G41C | < 1e-05
C34G A42C A48G | < 1e-05
A15G C50G | 8.29e-05 ± 3.5e-05
A15U G35U G40A | < 1e-05
C16U G32A | 0.00201 ± 0.00037
C50U G60A G63A | < 1e-05
A14G A33U C70G | < 1e-05
C10G U56C | < 1e-05

Variant | self-cleavage kobs at 2500 uM GlcN6P [s⁻¹]
G7C A52U U54G C61U | < 1e-05
U31C A53C U55C | 0.000164 ± 5e-05
A6C C10U G37U C50G U54C C70A | 0.000151 ± 3.4e-05
G9U G32U G38U A42U | < 1e-05
U31C U56A C67U | 0.000427 ± 0.00012
C11U G43U U47G | < 1e-05
A14U G32U A53G | 0.000242 ± 7.5e-05
C8A G13C U65C | < 1e-05
G7U U31C A36U A39C A42G G59U G66U | < 1e-05
G9U A14G U45A C67A | < 1e-05
G9U C16A A42C U54A A64G C70U | < 1e-05
A15U U54C U65A | 0.000123 ± 2.8e-05
G7A U49A A52C | < 1e-05
A12C A15U G43C G51A | < 1e-05
G40A A72C | 0.00214 ± 0.00067
A39G A42U U55G U57C G62A | < 1e-05
A6U A12U U46C C50U | < 1e-05
G29A G63C C68G | 0.000233 ± 6.2e-05
A15U G32C A36C G40C | < 1e-05
G29C U31G | < 1e-05
C8A G38A G63U C68U | < 1e-05
A14G U46C U54A C71A | 0.000844 ± 0.00027
G29A C50A C67G | 8.63e-05 ± 3.6e-05
A14C U55A C68A | 6.41e-05 ± 2.5e-05
A33U U46G A48G A64C C70U | < 1e-05
A14U G32U C71A | 4.64e-05 ± 2e-05

Variant | self-cleavage kobs at 2500 uM GlcN6P [s⁻¹]
A6C G37C | < 1e-05
G13U A42U C50U | < 1e-05
U46C U47A U69A | 0.000198 ± 6.5e-05
C16G G32C G41U U69C | < 1e-05
C11A G29U C58A | < 1e-05
A42G A52C A53G U54G | < 1e-05
G9A A14C G43U U46A | < 1e-05
G7A C8A G41U | < 1e-05
U31C G40U A48G C61U | < 1e-05
A6U G35U U45A U57A | < 1e-05
A39G U55G C71U | 0.00336 ± 0.0015
A6G G51U C58U | < 1e-05
C16A A42U A64U | < 1e-05
C8A A14G A64U | < 1e-05
C8U C11U A12U A36C A39G | < 1e-05
A15U G44A A48C U56A C70A | < 1e-05
A52C G59C A64U | < 1e-05
C16G G32U G66A | 0.000109 ± 3.9e-05
A12C U56G A64C | 6.67e-05 ± 2.1e-05
A39G G41U A42G | 0.000339 ± 9.9e-05
C10U U31A A39U G51C | < 1e-05
A15C A42G C70G | 7.41e-05 ± 1.9e-05
U31C G38U G66U | < 1e-05
A12G C34U C68A | < 1e-05
G13C G37U C58U G60A | < 1e-05
C11A G38C G40U G59A | < 1e-05

Variant | self-cleavage kobs at 2500 uM GlcN6P [s⁻¹]
C10G C34U G37U A42G | < 1e-05
C10U A14G G44U | < 1e-05
A6G A14C A48G | < 1e-05
G7A G32U G60U | < 1e-05
C34A G51C U54G | < 1e-05
C8G C10G C70G | < 1e-05
A6C A15U G43A C71U | < 1e-05
A12C G29U U65A | 0.000175 ± 4.1e-05
G7U G41A U47G C71G | < 1e-05
A14G G41C A42U | 3.8e-05 ± 1.4e-05
G29A U65A C71A | 4.59e-05 ± 1.7e-05
A15U G35U G38U U49G U54A | < 1e-05
G7U G43A U47A U57C A64U | < 1e-05
G35U A36G G63C | < 1e-05
A12G A39U U49G U55G | < 1e-05
G44U G60U C71A | < 1e-05
C8U G13U G59U | < 1e-05
U45C C58U G59C | < 1e-05
A6U U31C C50A U56G | < 1e-05
U31A A33U U56G U65G C68A | < 1e-05
U31G G38C G44A | < 1e-05
A6U A15U A36C | < 1e-05
A15G C34G A42U C67G | < 1e-05
G40A U54G U69A | < 1e-05
C8U A33C U45A A52U | < 1e-05
A6U C16U A53G C71G | 5.25e-05 ± 2.3e-05

Variant | self-cleavage kobs at 2500 uM GlcN6P [s⁻¹]
C16G U30A G35U A36C A53U | < 1e-05
C11G A15C U45C C68G | < 1e-05
G32U A42G U55C U56C C58G | 5.49e-05 ± 1.3e-05
G9A U31C A52U | < 1e-05
A15U G29U U55A | 0.00225 ± 0.00062
A12C A15G G66U C67A | 0.000636 ± 0.00013
A15G C16U U31A A39C | 0.000142 ± 2.8e-05
G32C G44A U45C | < 1e-05
G40A U56A C70G | 0.000135 ± 3e-05
C11U A39U U49A U69C | < 1e-05
G13A U30A G32U | 7.99e-05 ± 1.7e-05
A12C U31C U54A C67A | 6.33e-05 ± 2e-05
G9A G37A G38U | < 1e-05
G9A U56G G60A | < 1e-05
A14G U30C A39C U54A | 0.000132 ± 2.6e-05
A14C U31G A64C | 6.13e-05 ± 2.2e-05
G35U A64G C71A | < 1e-05
U30G U45A C58G | 9.63e-05 ± 1.6e-05
A14C C50A U54C | < 1e-05
G44A G51U U57A | < 1e-05
G9C C10U A15G U69G | < 1e-05
G32U U55G U56G | 0.000148 ± 4.3e-05
C10A C16U A48U | < 1e-05
G29U A42U C68A C71U | < 1e-05
C8G C16G U56A | < 1e-05
G7C A33C A36C G66U | < 1e-05

Variant | self-cleavage kobs at 2500 uM GlcN6P [s⁻¹]
C8A G9U A15C U31A G32A C70A | < 1e-05
U31G C34G A64G C67G | < 1e-05
C8G A12U A39U | < 1e-05
A4C | 0.0314 ± 0.0074
G44C C58G G63A C67G | < 1e-05
A6C A39C C68U | < 1e-05
G7A A33C C58U U65G C70G | < 1e-05
G13A A14U U56A | 0.000412 ± 0.0001
G9C G59C G63U | < 1e-05
G41U U45C A64U | < 1e-05
A42G U45C C70U | 0.00265 ± 0.00085
C10G G37C C67U | < 1e-05
A36C G51C C71G | < 1e-05
C10A G38C C58G | < 1e-05
C10G C34A G37A G60U | < 1e-05
A14C U31A A42C A48G C71G | < 1e-05
G38C C58U G66A | < 1e-05
A6U G37A U49C U54A | < 1e-05
C34U C50A C58G G62C | < 1e-05
A6U C10U A12C G60A C67U | < 1e-05
G37A G60U | < 1e-05
A12G U31C U54C | 3.97e-05 ± 1.2e-05
U45C U55A U65C | 4.27e-05 ± 1.2e-05

Variants of: B1
Assay: self-cleavage kobs at 10000 uM GlcN6P; higher = faster cleavage; RNA array
Details: with glucosamine-6-phosphate
In short: as §1

Variant | self-cleavage kobs at 10000 uM GlcN6P [s⁻¹]
G51C G66A | < 1e-05
U45C U46A | 5.25e-05 ± 1.3e-05
A12G G63A | < 1e-05
C10G U56C | < 1e-05
U31C U56A C67U | 0.000671 ± 0.00015
A15U U54C U65A | 0.000335 ± 3.8e-05
A14U G32U C71A | 7.15e-05 ± 2.1e-05
A6C G37C | < 1e-05
G13U A42U C50U | < 1e-05
C8U C11U A12U A36C A39G | < 1e-05
C16G G32U G66A | 0.000209 ± 5.7e-05
A15C A42G C70G | 4.12e-05 ± 1.7e-05
C8G C10G C70G | < 1e-05
A12C G29U U65A | 0.000443 ± 7.6e-05
G9A U31C A52U | < 1e-05
A14G U30C A39C U54A | 0.000156 ± 2.5e-05
U30G U45A C58G | 0.000163 ± 4.1e-05
G44A G51U U57A | < 1e-05
G32U U55G U56G | 0.000376 ± 8.4e-05
G13A A14U U56A | 0.000631 ± 0.00023
G9C G59C G63U | < 1e-05
A42G U45C C70U | 0.00197 ± 0.00052
A36C G51C C71G | < 1e-05
G37A G60U | < 1e-05
